Laboratory results: paper PMC4132714, “Phospho-dependent and phospho-independent interactions of the helicase UPF1 with the NMD factors SMG5–SMG7 and SMG6” (Nucleic Acids Research, 2014)
Ends that are not written are not given here.

T1: SMG5–7 TPR complex (heterodimer of SMG5 TPR and SMG7 TPR) (human, UniProt Q9UPR3 1-803; Q92540 1-499, Δ408–632)
T1 construct: SMG5, human, residues 1–803 with the predicted insertion 408–632 removed (SMG5 TPR); SMG7, human, residues 1–499 (SMG7 TPR); Written SMG5-His and His-(TEV)-SMG7 in the methods; also called SMG5–SMG7; SMG5–7 TPR heterodimer; not shown: His, N-terminal, cleaved; copies: 1 + 1
T1 sequence (looked up) 1: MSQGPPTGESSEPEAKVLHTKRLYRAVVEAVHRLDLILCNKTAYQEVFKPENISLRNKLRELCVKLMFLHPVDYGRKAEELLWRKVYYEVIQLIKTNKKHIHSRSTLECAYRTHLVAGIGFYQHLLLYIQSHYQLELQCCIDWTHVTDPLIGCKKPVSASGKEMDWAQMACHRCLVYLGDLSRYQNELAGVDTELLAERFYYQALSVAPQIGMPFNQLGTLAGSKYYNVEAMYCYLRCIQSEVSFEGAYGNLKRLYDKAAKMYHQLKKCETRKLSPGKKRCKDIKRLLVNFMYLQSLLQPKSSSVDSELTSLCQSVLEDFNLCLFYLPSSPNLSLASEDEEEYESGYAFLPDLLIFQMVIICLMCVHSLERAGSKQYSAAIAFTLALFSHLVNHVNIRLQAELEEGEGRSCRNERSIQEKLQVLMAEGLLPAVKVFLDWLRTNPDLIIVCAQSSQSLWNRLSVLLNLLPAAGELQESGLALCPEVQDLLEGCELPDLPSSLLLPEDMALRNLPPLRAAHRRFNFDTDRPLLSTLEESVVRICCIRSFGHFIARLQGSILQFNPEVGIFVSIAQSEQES
T1 sequence (looked up) 2: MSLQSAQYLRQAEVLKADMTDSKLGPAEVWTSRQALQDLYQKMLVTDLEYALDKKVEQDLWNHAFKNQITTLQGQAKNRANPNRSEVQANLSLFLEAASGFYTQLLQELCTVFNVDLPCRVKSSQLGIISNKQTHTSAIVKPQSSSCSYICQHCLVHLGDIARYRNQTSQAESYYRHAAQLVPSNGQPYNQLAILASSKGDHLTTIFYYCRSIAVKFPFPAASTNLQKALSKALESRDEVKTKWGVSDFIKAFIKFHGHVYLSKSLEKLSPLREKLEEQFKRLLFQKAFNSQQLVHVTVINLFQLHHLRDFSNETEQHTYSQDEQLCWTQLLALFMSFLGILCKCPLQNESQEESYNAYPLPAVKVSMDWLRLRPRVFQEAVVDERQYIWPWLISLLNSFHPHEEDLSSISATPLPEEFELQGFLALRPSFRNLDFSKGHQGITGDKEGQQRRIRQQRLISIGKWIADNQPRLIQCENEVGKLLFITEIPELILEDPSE

B1: GST-UPF1CT4 (residues 1086–1118) phosphorylated in vitro by SMG1 wt (domain or fragment, human, UniProt Q92900-2 1086-1118, looked up)
chain: {GST}-EFKSQIDVALSQDSTYQGERAYQHGGVTGLSQY
modifications: also: phosphorylated in vitro by SMG1 at SQ motifs, sites not given here
notes: source: E. coli, purified, then phosphorylated in vitro with SMG1 wt
B2: GST-UPF1CT (residues 917–1118) phosphorylated in vitro by SMG1 wt (domain or fragment, human, UniProt Q92900-2 917-1118, looked up)
chain: RKLVNTINPGARFMTTAMYDAREAIIPGSVYDRSSQGRPSSMYFQTHDQIGMISAGPSHVAAMNIPIPFNLVMPPMPPPGYFGQANGPAAGRGTPKGKTGRGGRQKNRFGLPGPSQTNLPNSQASQDVASQPFSQGALTQGYISMSQPSQMSQPGLSQPELSQDSYLGDEFKSQIDVALSQDSTYQGERAYQHGGVTGLSQY
modifications: phosphorylated in vitro by SMG1 at SQ motifs; sites not stated for this construct
notes: also called C-terminal tail of UPF1; source: E. coli BL21 (DE3) STAR pRARE, purified, then phosphorylated in vitro with SMG1 wt
B3: GST-UPF1CT2 (residues 1070–1118) phosphorylated in vitro by SMG1 wt (domain or fragment, human, UniProt Q92900-2 1070-1118, looked up)
chain: PGLSQPELSQDSYLGDEFKSQIDVALSQDSTYQGERAYQHGGVTGLSQY
modifications: not fully specified (N-terminus); also: phosphorylated in vitro by SMG1, sites not given here, GST fusion partner not in chain
notes: as for B1
B4: GST-UPF1CT1 (residues 1052–1118) phosphorylated in vitro by SMG1 wt (domain or fragment, human, UniProt Q92900-2 1052-1118, looked up)
chain: {GST}-GALTQGYISMSQPSQMSQPGLSQPELSQDSYLGDEFKSQIDVALSQDSTYQGERAYQHGGVTGLSQY
modifications: also: phosphorylated in vitro by SMG1 at SQ motifs, sites not given here
notes: as for B1
B5: GST-UPF1fl, unphosphorylated (mock-treated with SMG1 KD or not treated) (natural protein, human, UniProt Q92900-2 1-1118, looked up)
chain: MSVEAYGPSSQTLTFLDTEEAELLGADTQGSEFEFTDFTLPSQTQTPPGGPGGPGGGGAGGPGGAGAGAAAGQLDAQVGPEGILQNGAVDDSVAKTSQLLAELNFEEDEEDTYYTKDLPIHACSYCGIHDPACVVYCNTSKKWFCNGRGNTSGSHIVNHLVRAKCKEVTLHKDGPLGETVLECYNCGCRNVFLLGFIPAKADSVVVLLCRQPCASQSSLKDINWDSSQWQPLIQDRCFLSWLVKIPSEQEQLRARQITAQQINKLEELWKENPSATLEDLEKPGVDEEPQHVLLRYEDAYQYQNIFGPLVKLEADYDKKLKESQTQDNITVRWDLGLNKKRIAYFTLPKTDSDMRLMQGDEICLRYKGDLAPLWKGIGHVIKVPDNYGDEIAIELRSSVGAPVEVTHNFQVDFVWKSTSFDRMQSALKTFAVDETSVSGYIYHKLLGHEVEDVIIKCQLPKRFTAQGLPDLNHSQVYAVKTVLQRPLSLIQGPPGTGKTVTSATIVYHLARQGNGPVLVCAPSNIAVDQLTEKIHQTGLKVVRLCAKSREAIDSPVSFLALHNQIRNMDSMPELQKLQQLKDETGELSSADEKRYRALKRTAERELLMNADVICCTCVGAGDPRLAKMQFRSILIDESTQATEPECMVPVVLGAKQLILVGDHCQLGPVVMCKKAAKAGLSQSLFERLVVLGIRPIRLQVQYRMHPALSAFPSNIFYEGSLQNGVTAADRVKKGFDFQWPQPDKPMFFYVTQGQEEIASSGTSYLNRTEAANVEKITTKLLKAGAKPDQIGIITPYEGQRSYLVQYMQFSGSLHTKLYQEVEIASVDAFQGREKDFIILSCVRANEHQGIGFLNDPRRLNVALTRARYGVIIVGNPKALSKQPLWNHLLNYYKEQKVLVEGPLNNLRESLMQFSKPRKLVNTINPGARFMTTAMYDAREAIIPGSVYDRSSQGRPSSMYFQTHDQIGMISAGPSHVAAMNIPIPFNLVMPPMPPPGYFGQANGPAAGRGTPKGKTGRGGRQKNRFGLPGPSQTNLPNSQASQDVASQPFSQGALTQGYISMSQPSQMSQPGLSQPELSQDSYLGDEFKSQIDVALSQDSTYQGERAYQHGGVTGLSQY
notes: UPF1, human; also called full-length GST-UPF1; unphosphorylated UPF1
B6: GST-UPF1fl phosphorylated in vitro by SMG1 wt (natural protein, human, UniProt Q92900-2 1-1118, looked up)
chain: B5 chain
modifications: phosphorylated by SMG1 at SQ and TQ motifs present exclusively in the N- and C-terminal tails; detected sites include Thr28, Ser1078, Ser1096 and Ser1116
notes: UPF1, human; also called phospho-UPF1; phospho-UPF1fl

These binders were tested against T1, SMG5–7 TPR complex (heterodimer of SMG5 …) (assay: pull-down; GST pull-down, one prey: ∼2 μg GST-tagged bait with equal amount of untagged prey in 20 mM HEPES pH 7.5, 125 mM NaCl, 2% glycerol, 2 mM DTT (45 μl), 45 min at room temperature; glutathione–Sepharose beads in 20 mM HEPES pH 7.5, 150 mM NaCl, 10% glycerol, 2 mM DTT, 0.1% NP-40, 1 h at 4°C; eluted with glutathione; SDS-PAGE, Coomassie; GST-UPF1 constructs pre-treated with SMG1 wt or SMG1 KD where indicated). Conditions: both partners purified.

Row | binding result | Binder
1 | binds | B1
2 | binds | B2
3 | binds | B3
4 | binds | B4

What follows are binders tested against T2, SMG6fl (HA-Flag tagged, purified from HEK 293T cells) (human, UniProt Q86US8 1-1419) (assay: pull-down; GST pull-down as in Figure 1C with GST-UPF1fl as bait and several preys added together (SMG6fl, UPF2, UPF3, EJC; or SMG6fl and SMG5–7 TPR after treatment with SMG1 wt or KD); Coomassie). Conditions: both partners purified.
T2 construct: SMG6, human, full length (SMG6CT ends at residue 1419)
T2 sequence (Q86US8 whole entry): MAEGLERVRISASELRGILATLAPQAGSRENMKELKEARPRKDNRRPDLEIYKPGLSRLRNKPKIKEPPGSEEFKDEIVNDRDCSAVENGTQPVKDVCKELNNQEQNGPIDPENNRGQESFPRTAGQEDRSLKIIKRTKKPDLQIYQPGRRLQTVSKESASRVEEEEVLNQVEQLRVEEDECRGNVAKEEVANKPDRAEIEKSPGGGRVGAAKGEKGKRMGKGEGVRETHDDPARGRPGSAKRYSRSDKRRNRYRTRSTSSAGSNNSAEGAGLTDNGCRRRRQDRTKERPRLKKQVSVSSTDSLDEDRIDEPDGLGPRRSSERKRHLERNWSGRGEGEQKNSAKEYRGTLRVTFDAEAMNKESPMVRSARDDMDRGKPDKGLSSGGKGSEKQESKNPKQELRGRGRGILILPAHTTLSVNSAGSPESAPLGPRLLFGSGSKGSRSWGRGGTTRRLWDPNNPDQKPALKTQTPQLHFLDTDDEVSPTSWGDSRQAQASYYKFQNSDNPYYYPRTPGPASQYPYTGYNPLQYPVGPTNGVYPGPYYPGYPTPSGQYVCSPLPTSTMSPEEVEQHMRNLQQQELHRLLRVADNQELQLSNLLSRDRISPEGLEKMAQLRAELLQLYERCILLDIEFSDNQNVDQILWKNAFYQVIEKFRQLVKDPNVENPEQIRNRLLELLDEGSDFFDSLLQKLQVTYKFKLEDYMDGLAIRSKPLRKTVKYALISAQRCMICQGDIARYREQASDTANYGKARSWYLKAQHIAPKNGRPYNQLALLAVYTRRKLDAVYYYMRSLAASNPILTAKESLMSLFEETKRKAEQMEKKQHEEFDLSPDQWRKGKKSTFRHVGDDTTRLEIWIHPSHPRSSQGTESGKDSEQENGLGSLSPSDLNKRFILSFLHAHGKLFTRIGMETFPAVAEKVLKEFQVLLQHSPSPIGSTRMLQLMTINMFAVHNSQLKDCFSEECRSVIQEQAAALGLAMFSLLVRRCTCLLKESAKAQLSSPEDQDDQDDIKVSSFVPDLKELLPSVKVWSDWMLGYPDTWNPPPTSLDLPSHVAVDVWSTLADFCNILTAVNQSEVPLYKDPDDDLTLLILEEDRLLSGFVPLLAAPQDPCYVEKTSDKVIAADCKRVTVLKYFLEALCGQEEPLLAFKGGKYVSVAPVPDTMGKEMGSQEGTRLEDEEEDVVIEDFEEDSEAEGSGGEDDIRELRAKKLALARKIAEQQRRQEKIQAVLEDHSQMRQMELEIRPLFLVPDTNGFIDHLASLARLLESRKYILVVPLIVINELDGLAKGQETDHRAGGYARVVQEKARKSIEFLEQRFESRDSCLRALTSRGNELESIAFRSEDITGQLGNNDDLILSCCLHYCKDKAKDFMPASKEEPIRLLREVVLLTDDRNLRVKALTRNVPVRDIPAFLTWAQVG

Row | binding result | Binder
5 | binds | B5
6 | binds | B6
